We go through five molecules from patent US20190300618A1 (Merck Sharp & Dohme, published 2019).

Positions count from the first letter of the chain named.

In assay [1] the target is T1, K17A.
T1 construct: also called hCD27 K17A
T1 receptor: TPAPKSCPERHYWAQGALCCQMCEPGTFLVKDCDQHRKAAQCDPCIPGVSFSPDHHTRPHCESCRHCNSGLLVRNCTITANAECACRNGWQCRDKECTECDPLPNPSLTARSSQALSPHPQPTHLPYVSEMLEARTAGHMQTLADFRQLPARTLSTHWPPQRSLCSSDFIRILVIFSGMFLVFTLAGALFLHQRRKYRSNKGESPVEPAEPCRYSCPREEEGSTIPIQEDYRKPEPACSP
Nature of the assay: flow cytometry, CHO-K1; sub-column 2 of 2.

Assay [2] addresses T2, F28A.
T2 construct: also called hCD27 F28A
T2 receptor: T1 receptor with A17K, F28A
Nature of the assay: flow cytometry, CHO-K1; sub-column 2 of 2.

Assay [3] has as its target T3, S63A.
T3 construct: also called hCD27 S63A
T3 receptor: T1 receptor with A17K, S63A
Description: flow cytometry, CHO-K1; sub-column 2 of 2. Background: Flow cytometry measures light scatter and fluorescence of single cells or particles in a stream.

Another assay addresses D32A. Description: flow cytometry, CHO-K1; sub-column 1 of 2.
The target in the next assay is D43A. Description: flow cytometry, CHO-K1; sub-column 1 of 2.
A further assay has as its target E9A. Description: flow cytometry, CHO-K1; sub-column 1 of 2.
Assay [4] concerns the target F28A. Nature of the assay: flow cytometry, CHO-K1; sub-column 1 of 2.
A further assay addresses G16A. Nature of the assay: flow cytometry, CHO-K1; sub-column 1 of 2.
The next assay deals with G89A. Nature of the assay: flow cytometry, CHO-K1; sub-column 1 of 2.
Assay [5] has as its target H36A. Nature of the assay: flow cytometry, CHO-K1; sub-column 1 of 2.
For another assay, the target named is H60A. Nature of the assay: flow cytometry, CHO-K1; sub-column 1 of 2.
In a further assay the target is I46A. Nature of the assay: flow cytometry, CHO-K1; sub-column 1 of 2.
In assay [6] the target is K17A. Description: flow cytometry, CHO-K1; sub-column 1 of 2.
Another assay addresses K31A. Nature of the assay: flow cytometry, CHO-K1; sub-column 1 of 2.
The next assay concerns the target K38A. Description: flow cytometry, CHO-K1; sub-column 1 of 2.
The next assay has as its target N88A. Description: flow cytometry, CHO-K1; sub-column 1 of 2.
The next assay has as its target P44A. Nature of the assay: flow cytometry, CHO-K1; sub-column 1 of 2.
The target in the next assay is P8A. Nature of the assay: flow cytometry, CHO-K1; sub-column 1 of 2.
The next assay deals with Q15A. Description: flow cytometry, CHO-K1; sub-column 1 of 2.
A further assay has as its target Q41A. Description: flow cytometry, CHO-K1; sub-column 1 of 2.
In another assay the target is Q91A. Description: flow cytometry, CHO-K1; sub-column 1 of 2.
Another assay addresses R10A. Description: flow cytometry, CHO-K1; sub-column 1 of 2.
The target of a further assay is R37A. Nature of the assay: flow cytometry, CHO-K1; sub-column 1 of 2.
In another assay the target is R87A. Nature of the assay: flow cytometry, CHO-K1; sub-column 1 of 2.
Another assay concerns the target R93A. Nature of the assay: flow cytometry, CHO-K1; sub-column 1 of 2.
Assay [7] deals with S63A. Description: flow cytometry, CHO-K1; sub-column 1 of 2.
The next assay concerns the target V30A. Description: flow cytometry, CHO-K1; sub-column 1 of 2.
For a further assay, the target named is V49A. Nature of the assay: flow cytometry, CHO-K1; sub-column 1 of 2.
For another assay, the target named is W13A. Nature of the assay: flow cytometry, CHO-K1; sub-column 1 of 2.
The target of assay [8] is W90A. Nature of the assay: flow cytometry, CHO-K1; sub-column 1 of 2.
The target in assay [9] is T4, H36A.
T4 construct: also called hCD27 H36A
T4 receptor: T1 receptor with A17K, H36A
Description: flow cytometry, CHO-K1; single column.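 Also: CHO-K1 cells transiently transfected with hCD27 alanine mutant constructs, anti-hCD27 antibody binding measured by flow cytometry, 30 min at 4 °C, wild-type hCD27 binding taken as 100%.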
Description: (§1) The ability of several anti-hCD27 antibodies to bind to a series of hCD27 alanine mutants was determined using CHO-K1 cells, transiently transfected pCI-neo empty vector, pCI-neo.hCD27 and several pCI-neo.CD27Ala mutant constructs.
(§2) Detached cells were transferred to 96 wells round-bottomed well plates at approximately 1.2×10⁵ cells/well. After spinning down the cells, discarding the supernatants and re-suspending the cells in the residual volume, the primary antibodies were added and incubated for 30 minutes at 4° C. Cells were washed three times with DPBS/BSA 1%, followed by centrifugation, discarding of the supernatants and re-suspension in the residual volume. […] After washing once, antibody binding was detected using the HTS plate reader (FACS Canto II) and FlowJo software for data analysis. Debris, dead cells and doublets were excluded from the analysis. Binding was expressed as the geometric mean of the FITC signal, relative to antibody binding to hCD27, which was set at 100%.

The target of assay [10] is T5, W90A.
T5 construct: also called hCD27 W90A
T5 receptor: T1 receptor with A17K, W90A
Description: flow cytometry, CHO-K1; single column.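 Also: CHO-K1 cells transiently transfected with hCD27 alanine mutant constructs, anti-hCD27 antibody binding measured by flow cytometry, 30 min at 4 °C, wild-type hCD27 binding taken as 100%.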
Description: as §1, §2

Regarding 1A4 (mouse IgG1) (antibody), the values for the % of WT hCD27 binding (geo mean FITC) in the assay with K17A [1], with F28A [2] and in the assay with S63A [3] were 6.8%, 60% and 163%, respectively.
1F5 hIgG1 (antibody): the % of WT hCD27 binding (geo mean FITC) in the assay with D32A was 115%; in the assay with D43A, 202%; in the assay with E9A, 95.4%; with F28A [4], 113%; with G16A, 96%; in the assay with G89A it was 103%. The % of WT hCD27 binding (geo mean FITC) with H36A [5] was found to be 116%; with H60A, 176%; in the assay with I46A it was 128%; with K17A [6] it was 95.1%; with K31A, 205%; with K38A it was 96.5%. For the same molecule, the % of WT hCD27 binding (geo mean FITC) came to 153% in the assay with N88A; 150% in the assay with P44A; 82.5% in the assay with P8A; 99% with Q15A; 104% in the assay with Q41A; 156% with Q91A. For the same molecule, the % of WT hCD27 binding (geo mean FITC) with R10A is 105%; in the assay with R37A it was 109%; with R87A, 40.8%; with R93A it was 120%; with S63A [7] it was 144%; in the assay with V30A it was 171%. Moreover, the % of WT hCD27 binding (geo mean FITC) was determined as 143% with V49A, 89.5% in the assay with W13A and 42.5% with W90A [8].
Take 9F4 (mouse IgG2a) (antibody): the % of WT hCD27 binding (geo mean FITC) was determined as 106% with K17A [1], 58.2% with F28A [2] and 149% in the assay with S63A [3].

B1: hCD27.15-6B (humanized hCD27.15, human IgG4, Clone 6B) (antibody, V domains shown)
VH: QVQLVQSGAEVKKPGASVKVSCKASGFIIKATYMHWVRQAPGQRLEWMGRIDPANGETKYDPKFQVRVTITADTSASTAYMELSSLRSEDTAVYYCARYAWYFDVWGQGTLVTVSS
VL: DIQMTQSPSSLSASVGDRVTITCRASENIYSFLAWYQQKPGKAPKLLIYHAKTLAEGVTSRFSGSGSGTDFTLTISSLQPEDSATYYCQHYYGSPLTFGQGTRLEIKR
notes: humanized version of hCD27.15 from WO2012/004367 with identical CDR regions; also called hCD27.15 (humanized 6B); hCD27.15 6B humanized antibody
Regarding B1, the “% of WT hCD27 binding (geo mean FITC)” value with H36A [9] worked out at 122%; with W90A [10] it was 93.8%.

B2: Antibody hCD27.131A (mouse parental 131A) (antibody, V domains shown)
VH: QIQLVQSGPELKKPGETVKISCKASGYTFTNYGMNWVKQAPGKGLKWMGWINTNTGEPTYAEEFKGRFAFSLETSATTAYLQINNLKNEDTATYFCAREGDAMDYWGQGTSVTVSS
VL: QIVLTQSPAIMSASPGEKVTMTCSASSSVSYMHWYQQKSGTSPKRWIYDTSKLASGVPARFSGSGSGTSYSLTISSMEAEDAATYYCQQWNSYPFTFGSGTKLEIK
notes: mouse IgG1; also called mouse hCD27.131A
Consider B2, for which the “% of WT hCD27 binding (geo mean FITC)” value with K17A [1] was 126%; in the assay with F28A [2] it was 57.1%; in the assay with S63A [3] it was 141%.
